Measurements published in the supplement of paper PMC10724198.
± gives the standard deviation of the averaged measurements.

System: Saccharomyces cerevisiae
Assay: protein stability index of tFT-peptide fusion (C-terminal peptide) (PSI (0-1 scale)); higher = more stable (slower turnover)
Conditions: temperature: 30 C
Description: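 MPS profiling in S. cerevisiae of the yeast C-terminome library: the last 12 aa of each annotated ORF are fused to the C-terminus of a sfGFP-mCherry timer, after a GGGS linker. Cells are FACS-sorted into 8 mCherry/sfGFP bins and deep-sequenced. PSI runs from 0 (unstable) to 1 (stable); wild type and das1Δ backgrounds, two technical replicates each.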

[1] = genetic background: das1 deletion

Sequence | protein stability index [1] | protein stability index (genetic background: wild type)
GEDEENTVDSQY [YOL131W C-terminal 12 aa] | 0.688 ± 0.015 | 0.6803 ± 0.0017
GEDVLEGGCLLI [YIR023C-A C-terminal 12 aa] | 0.708 ± 0.051 | 0.727 ± 0.057
GELSVDEKKKIY [ERV29 C-terminal 12 aa] | 0.6932 ± 0.00077 | 0.657 ± 0.041
GFADLDNFMSSL [HAA1 C-terminal 12 aa] | 0.686 ± 0.039 | 0.689 ± 0.033
GGFLSFGGGYDE [AIM25 C-terminal 12 aa] | 0.712 ± 0.034 | 0.726 ± 0.013
GGFSTEFNSCDT [MLF3 C-terminal 12 aa] | 0.719 ± 0.019 | 0.721 ± 0.023
GGGASSIVIEKI [ERG10 C-terminal 12 aa] | 0.697 ± 0.035 | 0.694 ± 0.011
GGQNSPGDMAVA [YDL199C C-terminal 12 aa] | 0.692 ± 0.011 | 0.741 ± 0.068
GHNDGDINVWTL [CAF4 C-terminal 12 aa] | 0.7185 ± 0.0052 | 0.7273 ± 0.0028
GIDLNSIKWSGH [NFS1 C-terminal 12 aa] | 0.718 ± 0.012 | 0.709 ± 0.012
GINAGEIEIPEN [RPL12A C-terminal 12 aa] | 0.692 ± 0.0082 | 0.698 ± 0.012
GIPEEFKEFTEV [MND1 C-terminal 12 aa] | 0.7022 ± 0.0026 | 0.7181 ± 0.0035
GIPNLLLPPHLV [TRM112 C-terminal 12 aa] | 0.707 ± 0.014 | 0.691 ± 0.007
GIVPGDCLQEYD [FUS1 C-terminal 12 aa] | 0.702 ± 0.0059 | 0.685 ± 0.016
GKEHRFGLHIRS [DPH6 C-terminal 12 aa] | 0.6887 ± 0.0022 | 0.698 ± 0.026
GKLAEILKPVFQ [GRX2 C-terminal 12 aa] | 0.706 ± 0.011 | 0.677 ± 0.0068
GKQKQLLFHIGV [HEL2 C-terminal 12 aa] | 0.6865 ± 0.0042 | 0.718 ± 0.035
GKQLLSPMGRAF [TKL2 C-terminal 12 aa] | 0.679 ± 0.022 | 0.6529 ± 0.0014
GLEHSDPFSTFY [DBF2 C-terminal 12 aa] | 0.71206 ± 0.0003 | 0.712 ± 0.025
GLNEVTRLIKGL [HTS1 C-terminal 12 aa] | 0.695 ± 0.011 | 0.641 ± 0.027
GLRYDMVHKLIS [SLH1 C-terminal 12 aa] | 0.688 ± 0.025 | 0.212 ± 0.028

Sequence | protein stability index [1] | protein stability index (genetic background: wild type)
GMISKSLKIPKP [CHO1 C-terminal 12 aa] | 0.661 ± 0.0085 | 0.698 ± 0.0082
GNIVSQDLLDLF [APL2 C-terminal 12 aa] | 0.724 ± 0.034 | 0.7 ± 0.012
GPSVMCTLYLTF [ARE2 C-terminal 12 aa] | 0.5849 ± 0.0035 | 0.59105 ± 0.00058
GQALLDQFAKFK [LSC1 C-terminal 12 aa] | 0.721 ± 0.058 | 0.687 ± 0.021
GSNELLSILHRK [DCP2 C-terminal 12 aa] | 0.73 ± 0.018 | 0.694 ± 0.059
GSSVPLDLTLFT [VRP1 C-terminal 12 aa] | 0.728 ± 0.012 | 0.714 ± 0.0093
GSVCFIMDYFTG [VPS62 C-terminal 12 aa] | 0.706 ± 0.013 | 0.677 ± 0.015
GSYATRAYGQKK [FDH1 C-terminal 12 aa] | 0.694 ± 0.011 | 0.688 ± 0.018
GWDRLVEARSQI [EMW1 C-terminal 12 aa] | 0.7268 ± 0.0039 | 0.708 ± 0.027
HAERERENMIYD [YGL108C C-terminal 12 aa] | 0.7122 ± 0.0035 | 0.695 ± 0.029
HAQKRVSNASAR [SKI6 C-terminal 12 aa] | 0.6983 ± 0.0028 | 0.6988 ± 0.0036
HCLSNSASHSCG [YGR018C C-terminal 12 aa] | 0.675 ± 0.014 | 0.64 ± 0.014
HFNSSSPQKVEF [LSM4 C-terminal 12 aa] | 0.721 ± 0.012 | 0.738 ± 0.03
HGHHNSSTSGHK [PBP1 C-terminal 12 aa] | 0.694 ± 0.015 | 0.714 ± 0.0077
HKTNLTRGSFYS [YIR020W-A C-terminal 12 aa] | 0.70525 ± 6.6e-05 | 0.708 ± 0.041
HLGDPLWNFSVE [TMA20 C-terminal 12 aa] | 0.7244 ± 0.0043 | 0.707 ± 0.01
HLNESVYSKPLP [YIL028W C-terminal 12 aa] | 0.6938 ± 0.0028 | 0.678 ± 0.065
HPNIDALLKKTE [MST27 C-terminal 12 aa] | 0.686 ± 0.014 | 0.654 ± 0.035
HSNTLKRKIEQV [PUS4 C-terminal 12 aa] | 0.7252 ± 0.0013 | 0.697 ± 0.012
HTRRAFLIPFVF [TSC13 C-terminal 12 aa] | 0.547 ± 0.02 | 0.241 ± 0.011
HVAPYAIIPFII [DFG10 C-terminal 12 aa] | 0.724 ± 0.0075 | 0.151 ± 0.024

Sequence | protein stability index [1] | protein stability index (genetic background: wild type)
HWRSVYDEFGEL [APE1 C-terminal 12 aa] | 0.721 ± 0.01 | 0.701 ± 0.024
IAEEIISMFAEN [YNR064C C-terminal 12 aa] | 0.692 ± 0.031 | 0.723 ± 0.016
IALAEHRVERSN [CLB3 C-terminal 12 aa] | 0.718 ± 0.05 | 0.701 ± 0.033
IAPIRIYKITKQ [EFM3 C-terminal 12 aa] | 0.686 ± 0.028 | 0.677 ± 0.039
IAREIFHNVTNF [SEC39 C-terminal 12 aa] | 0.724 ± 0.025 | 0.695 ± 0.037
IARLEKLLSGGV [LEA1 C-terminal 12 aa] | 0.692 ± 0.017 | 0.686 ± 0.0076
IAVNYGQKDLIE [BRR1 C-terminal 12 aa] | 0.697 ± 0.033 | 0.669 ± 0.014
IDLFRDAYNHEN [UPS2 C-terminal 12 aa] | 0.7353 ± 0.0064 | 0.70705 ± 3.4e-05
IDMLKMSNAEEY [YLR012C C-terminal 12 aa] | 0.672 ± 0.015 | 0.6642 ± 0.0041
IEIVKDAKRKGY [MRP21 C-terminal 12 aa] | 0.70154 ± 7.3e-05 | 0.674 ± 0.017
IEKNHAKFTDLT [CSH1 C-terminal 12 aa] | 0.7074 ± 0.0034 | 0.731 ± 0.017
IFFILYTLFKLF [SFT1 C-terminal 12 aa] | 0.422 ± 0.0091 | 0.199 ± 0.01
IFLNDVYFNLMV [YPR126C C-terminal 12 aa] | 0.728 ± 0.016 | 0.686 ± 0.012
IFNATASNPFGF [SLA1 C-terminal 12 aa] | 0.738 ± 0.029 | 0.747 ± 0.045
IFVFFVIWVLVN [SED5 C-terminal 12 aa] | 0.209 ± 0.019 | 0.211 ± 0.015
IGEFADNVMPLA [PRY2 C-terminal 12 aa] | 0.709 ± 0.026 | 0.712 ± 0.0076
IGISPSQNKWEK [REX3 C-terminal 12 aa] | 0.728 ± 0.02 | 0.7285 ± 0.0071
IIRDFLIEKGFI [YNL320W C-terminal 12 aa] | 0.731 ± 0.024 | 0.667 ± 0.009
IKALQDSLFKDV [NUP188 C-terminal 12 aa] | 0.718 ± 0.013 | 0.705 ± 0.042
IKKGTPNNIAFL [YJL197C-A C-terminal 12 aa] | 0.7027 ± 0.0063 | 0.704 ± 0.017
IKKRKVQNRAMS [YOL038C-A C-terminal 12 aa] | 0.701 ± 0.017 | 0.73 ± 0.0083

Sequence | protein stability index [1] | protein stability index (genetic background: wild type)
IKTDSVHELLKK [MFM1 C-terminal 12 aa] | 0.704 ± 0.018 | 0.696 ± 0.0083
ILGNYRDIFKQA [RGA2 C-terminal 12 aa] | 0.726 ± 0.014 | 0.266 ± 0.077
ILISTIYAHCSS [HFD1 C-terminal 12 aa] | 0.577 ± 0.0076 | 0.489 ± 0.015
ILLTPNNHGEMK [BDH1 C-terminal 12 aa] | 0.689 ± 0.03 | 0.684 ± 0.011
ILPIHQEDPANR [MEP1 C-terminal 12 aa] | 0.701 ± 0.011 | 0.686 ± 0.042
ILTAEKMRGNGN [RRP4 C-terminal 12 aa] | 0.686 ± 0.033 | 0.677 ± 0.027
INFHSGSIFDAC [ENV11 C-terminal 12 aa] | 0.717 ± 0.029 | 0.7009 ± 0.0015
INKDMTKKKMKF [MFG1 C-terminal 12 aa] | 0.689 ± 0.029 | 0.677 ± 0.029
IPKIPKIVNGFK [DCS1 C-terminal 12 aa] | 0.694 ± 0.012 | 0.6501 ± 0.0018
IQAKLKISVHDI [BEM1 C-terminal 12 aa] | 0.674 ± 0.0062 | 0.681 ± 0.0069
IQKLNKVLEDSI [ATP5 C-terminal 12 aa] | 0.6748 ± 0.0023 | 0.675 ± 0.02
IRAAGGVVELIA [RPL28 C-terminal 12 aa] | 0.658 ± 0.0023 | 0.652 ± 0.038
IREFLEEIVDTQ [SUS1 C-terminal 12 aa] | 0.725 ± 0.081 | 0.728 ± 0.091
ISISHSAVPNIV [YAL069W C-terminal 12 aa] | 0.678 ± 0.0075 | 0.729 ± 0.037
ISLVFLWVSIEV [CSM4 C-terminal 12 aa] | 0.157 ± 0.018 | 0.173 ± 0.011
ISVYCGTTLEVM [TFC8 C-terminal 12 aa] | 0.44 ± 0.016 | 0.469 ± 0.013
ITEVNVSLEEKL [FHL1 C-terminal 12 aa] | 0.6842 ± 0.0013 | 0.7078 ± 0.0013
ITQARANTWLVV [YOR024W C-terminal 12 aa] | 0.654 ± 0.02 | 0.648 ± 0.0088
ITRDESTATYKY [RTT101 C-terminal 12 aa] | 0.695 ± 0.0095 | 0.6686 ± 0.0022
